# In the nanobody polyreactivity screen of Harvey et al. (2022):
# Assay: yeast display, Sf9 membrane polyspecificity reagent, FACS + sequencing; frameworks hold sequencing errors
# Method in brief: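 Nanobodies came from a synthetic yeast display library in Saccharomyces cerevisiae BJ5465, induced with galactose for 36–48 hours and stained for 1 hour at 4 °C with 10% biotinylated, detergent-solubilized Sf9 membrane reagent. Cells were enriched on streptavidin microbeads and then FACS-sorted, with low and high (top ~1%) gates set on anti-HA fluorescence for expression and streptavidin fluorescence for reagent binding. Each polyreactivity label reflects the gate a clone came from. Genes were amplified by colony PCR, sequenced by MiSeq 2 × 250 and filtered by CDR length.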
row,Sequence,polyreactivity (PSR sort gate)
1,QVQLVESGGGLVQAGGSLRLSCAASGSIFGTYAMGWYRQAPGKERELVAAITGSGGRTYYADSVKGRFTISRDNAKNTVYLQLNSLKPEDTAVYYCNKVVYVRSYPPRYDYWGQGTQVTVSS,high polyreactivity
2,QVQLVESGGGLVQAGGSLRLSCAASGSIFGTYAMGWYRQAPGKERELVARISGGGSTYYADSVKGRFTISRDNAKNTVYLQMNSLKPEDTAVYYCNVRKWAYCSHAIIYNYWGQGTQVTVSS,high polyreactivity
3,QVQLVESGGGLVQAGGSLRLSCAASGSIFGTYAMGWYRQAPGKEREMVARITSGGSTNYADSVKGRFTISRDNAKNTVFLQMNSLKPEDTAVYYCAARQYHWYLPSYWYRYDYWGQGTLVTVSS,high polyreactivity
4,QVQLVESGGGLVQAGGSLRLSCAASGSIFGVNAMGWYRQAPGKERELVADITKSTGDTYADSVKGRFTISRDNAKNTVYLQMNSLKPEDTAVYYCNARFTVKQKRLYLYDYWGQGTQVTVSS,low polyreactivity
5,QVQLVESGGGLVQAGGSLRLSCAASGSIFGVNYMGWYRQAPGKERELVAGLSSSGGSTYYADSVKGRFTISRDNAKNTVYLQMNSLKPEDTAVYDCAATQSRYYSDDPYYYWGQGTQVTVSS,low polyreactivity
6,QVQLVESGGGLVQAGGSLRLSCAASGSIFGVYAMGWYRQAPGKERELVAAISWSGTSTYYADSVKGRFTISRDNAKNTVYLQMNSLKPEDTAVYYCNGDWVLDGYDYDSWGQGTQVTVSS,low polyreactivity
7,QVQLVESGGGLVQAGGSLRLSCAASGSIFGVYTMGWYRQAPGKERELVAAITRSGGSTYYADSVKGRFTISRDNAKNTVYLQMNSLKPEDTAVYYCAARRAYVWCSQGYAHFEYWGQGTQVTVSS,high polyreactivity
8,QVQLVESGGGLVQAGGSLRLSCAASGSIFGWYAMGWYRQAPGKDWELVAASRRGGSTNYADSVKGRFTISRDNAKNTVYFQMNSLIPEATAVYYCAAGKSGYSKRIFRYSFDYWGQGTQVTVSS,high polyreactivity
9,QVQLVESGGGLVQAGGSLRLSCAASGSIFGWYAMGWYRQAPGKERELVAAIDSATSTYYADSVKGRFTISRDNAKNTVYLQMNSLKPEDTAFYYCAAVQLYQKHQITYVAHEYWGQGTQVTVSS,low polyreactivity
10,QVQLVESGGGLVQAGGSLRLSCAASGSIFGWYAMGWYRQAPGKERELVATISSGGGNTYYADSVKGRFTISRDNAKNTVYLQMNSLKPEDTAVYYCAADRTFYGIRFDYWGQGTQVTVSS,low polyreactivity
11,QVQLVESGGGLVQAGGSLRLSCAASGSIFGWYTMGWYRQAPGKERELVAAITWRGGTTYYADSVKGRFTISRDNAKNTVYLQMNSLKPEDTAVYYCATTRYPRSYQEFGYWGQGTQVTVSS,high polyreactivity
12,QVQLVESGGGLVQAGGSLRLSCAASGSIFGYNAMGWYRQAPGKEREFVAAINTSGGSTYYADSVKGSFTISRDNAKNTVYLQMYSLKPEATAVYYCAARAYSWISARYYWGLGTQVTVSS,high polyreactivity
13,QVQLVESGGGLVQAGGSLRLSCAASGSIFGYNAMGWYRQAPGKERELVAAISLTTGSTYYADSVKGRFTISRDNAKNTVYLQMNCLKPEDTAVYYCAAVDADYYYWGQGTQVTVSS,high polyreactivity
14,QVQLVESGGGLVQAGGSLRLSCAASGSIFGYNAMGWYRQAPGKERELVAAITSSGGSTYNADSVKGRFTISRDNAKNTVYLQMNSLKPEDTAFYYCNSRDWYIVWYDYWGQGTQVTVSS,low polyreactivity
15,QVQLVESGGGLVQAGGSLRLSCAASGSIFGYNDMGWYRQAPGKERELVATITWGGGRTRYADSVKGRFTISRDNAKNTVYFQMNSLKPEDTAVYYCAAGYYRLWVRYDYWGQGTQVTVSS,low polyreactivity
16,QVQLVESGGGLVQAGGSLRLSCAASGSIFGYNSMGWDRQAAGKERELVAAIYSGGNTYYADSVKGRFTISRDNAKNTVYLQMNSLKPEDTAVYYCAADGYDDSTSRWYEYWGQGSQVTVSS,low polyreactivity
17,QVQLVESGGGLVQAGGSLRLSCAASGSIFGYNTMGWYRKAPGKERELVAAISYRGGSTSADSVKGRFSISRDNAKNTVYLQMNSRKPEDTAVYSCATRSIVGYRYSGYDYWGQATQVTVSS,high polyreactivity
18,QVQLVESGGGLVQAGGSLRLSCAASGSIFGYNTMGWYRQAPGKERELVAAISWNGGNTYYADSVKGRFTISRDNAKNTVYLQMNSLKPEDTEVYYCNARTRSRSRGFDSWGQGTQVTVSS,high polyreactivity
19,QVQLVESGGGLVQAGGSLRLSCAASGSIFGYNVMGWYRQAPGKERELVATISSSGGTNYADSVKGRFTISRDNAKNTVYLQMNSLKPEDTAVYYCNADVLDGGYDYWGQGTQVTVSS,low polyreactivity
20,QVQLVESGGGLVQAGGSLRLSCAASGSIFGYSAMGWYRQAPGKERELVAAIDSGGSTYYADSVKGRFTISRDNAKNTVYLQMNSLKPQDTAVYYCAAGVSSFSPYDSWGQGTQVTVSS,low polyreactivity
21,QVQLVESGGGLVQAGGSLRLSCAASGSIFGYYAMGWYRQAPGKERELVAAISGIGGSTYYADSVKGRFTISRDNAKNTVYLQMNSLKPEDTAVYYCAKARPHVGGGGDYWGQGTQVTVSS,low polyreactivity
22,QVQLVESGGGLVQAGGSLRLSCAASGSIFGYYAMGWYRQAPGKERELVAAISGSGGSTYYADSVKGRFTISRDNAKYTVYLQMNRLKPEDTAVYYCAAAYHGRHYYWGQGTQVTVSS,high polyreactivity

row,Sequence,polyreactivity (PSR sort gate)
1,QVQLVESGGGLVQAGGSLRLSCAASGSIFGYYAMGWYRQAPGKERELVADITVRGGSTYYADSVNGRFTISRDNAKNTVYLQMNSLKPEDTAVYYCAKRFKYIYYWGQGTQVTVSS,high polyreactivity
2,QVQLVESGGGLVQAGGSLRLSCAASGSIFGYYAMGWYRQAPGKERELVASITRSGGSTYYADSVKGRFTISRDNAKNTVYLQMNSLQPEDTAVYYCAVARYRHGRSGTYDVTGEYWGQGTQVTVSS,high polyreactivity
3,QVQLVESGGGLVQAGGSLRLSCAASGSIFGYYTKVWYRQARGKEREFVAAINTSGGSTYADSVKGRCTISRDNAKNTVYLQMNSLKPEDTAVYYCAADGYYEYTWGEYDSWGQGTQVTVSS,low polyreactivity
4,QVQLVESGGGLVQAGGSLRLSCAASGSIFGYYTMGWYRPAPGKERELVAAITSGGSTNYADSVKGRFTISRDNAKNTVYLQMNSLKPEDTAVYYCAKVSYYPWRYDYWGQGTQVTVSS,low polyreactivity
5,QVQLVESGGGLVQAGGSLRLSCAASGSIFGYYTMGWYRQAPGKERELVAAISQGGARTYYADSVKGRFTISRDNAKNTVYLQMNSLKPEDTAVYYCNAVSPAGYWFDYWGQGTQVTVSS,high polyreactivity
6,QVQLVESGGGLVQAGGSLRLSCAASGSIFGYYVMGWYRPAPGKERELVAGISYSGGRTYYADSVKGRFTISRDNAKNTVYLQMNSLQPEDTAVYYCAAEGTTSWWVKYGYWGQGTQVTVSS,low polyreactivity
7,QVQLVESGGGLVQAGGSLRLSCAASGSIFHANAMGWYRQAPGKERELVAAISQSCDTTYYADSVKGRFTISRDNAKNTVYLQMNSLKPEDTAVYYCAAEEGYGAFWYDYWGQGTQVTVSS,high polyreactivity
8,QVQLVESGGGLVQAGGSLRLSCAASGSIFHANAMGWYRQAPGKERELVAVISQGGGSTYYADSVKGRFTISRDNAKNTVYLQMNSLKPEDTAVYYCAAYYYYSAYGDDYWGQGTQVTVSS,high polyreactivity
9,QVQLVESGGGLVQAGGSLRLSCAASGSIFHDNAKGWYRQAPGKERELVAAINRGGSTHYADSVKGRFTISRDNAKNTVYLQMNSLKPEDTAVYYCNTVGRGYDYDYWGQGTQVTVSS,low polyreactivity
10,QVQLVESGGGLVQAGGSLRLSCAASGSIFHNNAMGWYRQAPGKERELVASITSRGGSTYYADSVKGRFTISRDNAKNTVYLQMNSLKPEDTAVYYCAARPYARVKTHGYWGQGTQVTVSS,low polyreactivity
11,QVQLVESGGGLVQAGGSLRLSCAASGSIFHPNAMGWYRQAPGKERELVAAITKSGGSTYYADSVKGRFTISRDNAKNTVYLQMNSLKPEDTAVYYCNALRYRRVGTLGYDYWGQGTQVTVSS,high polyreactivity
12,QVQLVESGGGLVQAGGSLRLSCAASGSIFHPYAMGWYRQAPGKERELVAAISKSGGNTYYADSVKGRFTISRDNAKNTVYLQMNSLKPEDTAVYYCAALDYWGQGTLVTVSS,low polyreactivity
13,QVQLVESGGGLVQAGGSLRLSCAASGSIFHVNAMGWYRQAPGKERELVAGISDGGSTYYADSVKGRFTISRDNAKNTVYLQMNSLKPEDTAVYYCSADDGYTYYWAGYDSWGQGTQVTVSS,low polyreactivity
14,QVQLVESGGGLVQAGGSLRLSCAASGSIFHWYVMGWYRQAPGKERELVASISWSSGSTYADSVKGRFTISRDNGKNTVYLQMNSLKPEDTAVYFCNAKTYYPPFGYWGQGTQVTVSS,low polyreactivity
15,QVQLVESGGGLVQAGGSLRLSCAASGSIFHYNTMGWYRQAPGKERELVAAITYSGGSTYYADSVKGRYTISRDNAKNPVYLQMNSLKPEDTAVYYCAVRGPGTSTYWYHEYEYWGQGTQVTVSS,high polyreactivity
16,QVQLVESGGGLVQAGGSLRLSCAASGSIFHYYTMGWYRQAPGKERELVAGISRSGTSTFYADSVKGRFTISRDNAKKTVYLQMNSLKPEDTAVSYCNAYSPGSYYYWPYDYWGQGTQVTVSS,high polyreactivity
17,QVQLVESGGGLVQAGGSLRLSCAASGSIFIFNAMVWYRQAPGKEREFVARIRRDSSTYYADSVKGRFTISRDNAKNTVYLQMNSLKPEDTAVYYCAAKRVYRRVELNSWGQGTQVTVSS,low polyreactivity
18,QVQLVESGGGLVQAGGSLRLSCAASGSIFIGYAMGWYRQAPGKERELVAAITSGGSTYADSVKGRFTISRDNAKNTVYLQMNSLKPEDTAVYYCAAPRTYYSELTSPYDYWGQGTQVTVSS,low polyreactivity
19,QVQLVESGGGLVQAGGSLRLSCAASGSIFILYAMVWYRQAPGKERELVAAISSTGTTYYADSVKGRFTISRDNAKNTVYLQMNSLKPEDTAVYYCATDEPSSGRTPYDYWGQGTQVTVSS,low polyreactivity
20,QVQLVESGGGLVQAGGSLRLSCAASGSIFINNAMGWYRQATGKERELVSAIRRGDSTTYADSVKGRFTISRDNAKNTVYLQMNSLKPEDTAVYYCATSPWWYGYAAYGMDYWGQGTQVTVSS,low polyreactivity
21,QVQLVESGGGLVQAGGSLRLSCAASGSIFIPNAMGWYRQAPGKERELVAAITSGGRTYYADSVKGRFTISRDNAKNTVYLQMNSLKPEDTAVYYCAARSGYRYVESDYWGQGTQVTVSS,high polyreactivity
